In patent US20220088180A1:

B1: … (SEQ ID NO: 39) (peptide)
peptide: VGYLQPRTF
modifications: not checked
B2: … (SEQ ID NO: 15) (peptide)
peptide: EIKESVQTF
modifications: not checked
B3: … (SEQ ID NO: 20) (peptide)
peptide: EEFEPSTQYEY
modifications: not checked
B4: … (SEQ ID NO: 14) (peptide)
peptide: APHGHVMVEL
modifications: not checked
B5: … (SEQ ID NO: 37) (peptide)
peptide: NATNVVIKV
modifications: not checked
B6: … (SEQ ID NO: 29) (peptide)
peptide: KRVDWTIEY
modifications: not checked
B7: … (SEQ ID NO: 23) (peptide)
peptide: FGDDTVIEV
modifications: not checked
B8: … (SEQ ID NO: 4) (peptide)
peptide: MLLGSMLYM
modifications: not checked
B9: … (SEQ ID NO: 7) (peptide)
peptide: SLEDKAFQL
modifications: not checked
B10: … (SEQ ID NO: 5) (peptide)
peptide: GLITLSYHL
modifications: not checked
B11: LEDKAFQL (SEQ ID NO: 10) (peptide)
peptide: LEDKAFQL
modifications: not checked
B12: … (SEQ ID NO: 6) (peptide)
peptide: GPMVLRGLIT
modifications: not checked
B13: … (SEQ ID NO: 24) (peptide)
peptide: YLNSTNVTI
modifications: not checked
B14: … (SEQ ID NO: 35) (peptide)
peptide: HADQLTPTW
modifications: not checked

What follows are binders tested against HLA-A*01:01 (human) (assay: radioligand competition, purified MHC). Conditions: not given.

Which IC50 does the source give for B1 here?
The IC50 was over 70 µM.

How did the IC50 turn out when B2 was run?
Its IC50 is over 70 µM.

Which IC50 does the source give for B3 here?
The IC50 was over 70 µM.

B4 was tested. Which IC50 did it give?
Its IC50 is over 70 µM.

For B5, which IC50 is on record?
Its IC50 is over 70 µM.

Same assay, conditions: remark: other sources report otherwise

Which IC50 does the source give for B6 here?
The IC50 was over 70 µM.

For B7, which IC50 is on record?
The IC50 was over 70 µM.

Each binder was assayed against HLA-A*02:01 (human) (assay: radioligand competition, purified MHC). Conditions: not given.

For B8, which IC50 is on record?
Its IC50 is under 0.0005 µM.

B9 was tested. Which IC50 did it give?
Its IC50 is 0.02 µM.

How did the IC50 turn out when B10 was run?
Its IC50 is under 0.0005 µM.

With B11 as the binder, how does the IC50 read?
The IC50 was 3.89 µM.

How did the IC50 turn out when B12 was run?
Its IC50 is 2 µM.

B1 was tested. Which IC50 did it give?
The IC50 was over 70 µM.

B13 was tested. Which IC50 did it give?
The IC50 was 0.012 µM.

Which IC50 does the source give for B2 here?
The IC50 was over 70 µM.

B3 was tested. Which IC50 did it give?
The IC50 was over 70 µM.

B4 was tested. Which IC50 did it give?
Its IC50 is over 70 µM.

Same assay, conditions: remark: other sources report otherwise

For B6, which IC50 is on record?
Its IC50 is over 70 µM.

Each binder was assayed against HLA-A*26:01 (human) (assay: radioligand competition, purified MHC). Conditions: not given.

For B8, which IC50 is on record?
The IC50 was 45.5 µM.

How did the IC50 turn out when B10 was run?
The IC50 was 40.3 µM.

B12 was tested. Which IC50 did it give?
Its IC50 is 0.884 µM.

For B1, which IC50 is on record?
Its IC50 is over 70 µM.

B2 was tested. Which IC50 did it give?
Its IC50 is 0.0078 µM.

With B3 as the binder, how does the IC50 read?
Its IC50 is 18.8 µM.

How did the IC50 turn out when B4 was run?
Its IC50 is over 70 µM.

Which IC50 does the source give for B5 here?
Its IC50 is 43.4 µM.

Same assay, conditions: remark: other sources report otherwise

With B6 as the binder, how does the IC50 read?
The IC50 was over 70 µM.

B7 was tested. Which IC50 did it give?
Its IC50 is over 70 µM.

Each binder was assayed against HLA-B*07:02 (human) (assay: radioligand competition, purified MHC). Conditions: not given.

For B10, which IC50 is on record?
Its IC50 is 14.3 µM.

For B6, which IC50 is on record?
Its IC50 is over 70 µM.

How did the IC50 turn out when B1 was run?
The IC50 was over 70 µM.

With B13 as the binder, how does the IC50 read?
The IC50 was 7.93 µM.

B2 was tested. Which IC50 did it give?
Its IC50 is over 70 µM.

How did the IC50 turn out when B3 was run?
Its IC50 is over 70 µM.

B4 was tested. Which IC50 did it give?
Its IC50 is 0.0061 µM.

B7 was tested. Which IC50 did it give?
The IC50 was over 70 µM.

B5 was tested. Which IC50 did it give?
Its IC50 is over 70 µM.

These binders were tested against HLA-B*15:01 (human) (assay: radioligand competition, purified MHC). Conditions: not given.

With B8 as the binder, how does the IC50 read?
Its IC50 is 0.0011 µM.

For B9, which IC50 is on record?
Its IC50 is 1.58 µM.

B14 was tested. Which IC50 did it give?
The IC50 was 13.4 µM.

With B10 as the binder, how does the IC50 read?
The IC50 was 1.5 µM.

How did the IC50 turn out when B11 was run?
Its IC50 is 14.7 µM.

How did the IC50 turn out when B12 was run?
The IC50 was 8.55 µM.

Which IC50 does the source give for B1 here?
Its IC50 is 0.777 µM.

Which IC50 does the source give for B13 here?
The IC50 was 0.0012 µM.

With B2 as the binder, how does the IC50 read?
The IC50 was 4.93 µM.

With B3 as the binder, how does the IC50 read?
Its IC50 is 0.078 µM.

Which IC50 does the source give for B4 here?
Its IC50 is over 70 µM.

Which IC50 does the source give for B5 here?
The IC50 was over 70 µM.

Same assay, conditions: remark: other sources report otherwise

With B6 as the binder, how does the IC50 read?
Its IC50 is 0.356 µM.

Which IC50 does the source give for B7 here?
The IC50 was 2.38 µM.

The binders below were run against HLA-B*18:01 (human) (assay: radioligand competition, purified MHC). Conditions: not given.

Which IC50 does the source give for B14 here?
Its IC50 is 3.35 µM.

For B11, which IC50 is on record?
Its IC50 is 0.035 µM.

Which IC50 does the source give for B1 here?
Its IC50 is 0.707 µM.

For B2, which IC50 is on record?
Its IC50 is over 70 µM.

With B3 as the binder, how does the IC50 read?
The IC50 was 0.0011 µM.

B4 was tested. Which IC50 did it give?
The IC50 was over 70 µM.

With B5 as the binder, how does the IC50 read?
Its IC50 is over 70 µM.

Same assay, conditions: remark: other sources report otherwise

For B6, which IC50 is on record?
Its IC50 is over 70 µM.

With B7 as the binder, how does the IC50 read?
Its IC50 is over 70 µM.

What follows are binders tested against HLA-B*44:02 (human) (assay: radioligand competition, purified MHC). Conditions: not given.

Which IC50 does the source give for B8 here?
The IC50 was 18.9 µM.

Which IC50 does the source give for B14 here?
Its IC50 is 5.26 µM.

B10 was tested. Which IC50 did it give?
Its IC50 is 26 µM.

How did the IC50 turn out when B11 was run?
The IC50 was 35.4 µM.

B1 was tested. Which IC50 did it give?
The IC50 was over 70 µM.

For B2, which IC50 is on record?
The IC50 was 37.2 µM.

With B3 as the binder, how does the IC50 read?
The IC50 was 0.05 µM.

Which IC50 does the source give for B4 here?
The IC50 was over 70 µM.

For B5, which IC50 is on record?
Its IC50 is over 70 µM.

Same assay, conditions: remark: other sources report otherwise

B6 was tested. Which IC50 did it give?
The IC50 was over 70 µM.

With B7 as the binder, how does the IC50 read?
Its IC50 is over 70 µM.

The binders below were run against HLA-B*44:03 (human) (assay: radioligand competition, purified MHC). Conditions: not given.

B14 was tested. Which IC50 did it give?
The IC50 was 1.8 µM.

With B10 as the binder, how does the IC50 read?
Its IC50 is 24.3 µM.

With B11 as the binder, how does the IC50 read?
Its IC50 is 0.208 µM.

B1 was tested. Which IC50 did it give?
Its IC50 is over 70 µM.

B13 was tested. Which IC50 did it give?
Its IC50 is 49.6 µM.

How did the IC50 turn out when B2 was run?
Its IC50 is over 70 µM.

Which IC50 does the source give for B3 here?
Its IC50 is 0.00041 µM.

For B4, which IC50 is on record?
Its IC50 is over 70 µM.

With B5 as the binder, how does the IC50 read?
Its IC50 is 8.11 µM.

Same assay, conditions: remark: other sources report otherwise

B6 was tested. Which IC50 did it give?
The IC50 was over 70 µM.

With B7 as the binder, how does the IC50 read?
The IC50 was over 70 µM.

What follows are binders tested against HLA-B*51:01 (human) (assay: radioligand competition, purified MHC). Conditions: not given.

With B8 as the binder, how does the IC50 read?
The IC50 was 7.87 µM.

For B13, which IC50 is on record?
The IC50 was 3.62 µM.

B2 was tested. Which IC50 did it give?
The IC50 was over 70 µM.

Which IC50 does the source give for B3 here?
Its IC50 is over 70 µM.

Which IC50 does the source give for B4 here?
Its IC50 is over 70 µM.

B5 was tested. Which IC50 did it give?
Its IC50 is 0.536 µM.

Same assay, conditions: remark: other sources report otherwise

B6 was tested. Which IC50 did it give?
The IC50 was 22.7 µM.

With B7 as the binder, how does the IC50 read?
Its IC50 is 45.7 µM.
